B1: Polycystin-2 (Homo sapiens), Q13563-1 (parent)
chain: MVNSSRVQPQQPGDAKRPPAPRAPDPGRLMAGCAAVGASLAAPGGLCEQRGLEIEMQRIRQAAARDPPAGAAASPSPPLSSCSRQAWSRDNPGFEAEEEEEEVEGEEGGMVVEMDVEWRPGSRRSAASSAVSSVGARSRGLGGYHGAGHPSGRRRRREDQGPPCPSPVGGGDPLHRHLPLEGQPPRVAWAERLVRGLRGLWGTRLMEESSTNREKYLKSVLRELVTYLLFLIVLCILTYGMMSSNVYYYTRMMSQLFLDTPVSKTEKTNFKTLSSMEDFWKFTEGSLLDGLYWKMQPSNQTEADNRSFIFYENLLLGVPRIRQLRVRNGSCSIPQDLRDEIKECYDVYSVSSEDRAPFGPRNGTAWIYTSEKDLNGSSHWGIIATYSGAGYYLDLSRTREETAAQVASLKKNVWLDRGTRATFIDFSVYNANINLFCVVRLLVEFPATGGVIPSWQFQPLKLIRYVTTFDFFLAACEIIFCFFIFYYVVEEILEIRIHKLHYFRSFWNCLDVVIVVLSVVAIGINIYRTSNVEVLLQFLEDQNTFPNFEHLAYWQIQFNNIAAVTVFFVWIKLFKFINFNRTMSQLSTTMSRCAKDLFGFAIMFFIIFLAYAQLAYLVFGTQVDDFSTFQECIFTQFRIILGDINFAEIEEANRVLGPIYFTTFVFFMFFILLNMFLAIINDTYSEVKSDLAQQKAEMELSDLIRKGYHKALVKLKLKKNTVDDISESLRQGGGKLNFDELRQDLKGKGHTDAEIEAIFTKYDQDGDQELTEHEHQQMRDDLEKEREDLDLDHSSLPRPMSSRSFPRSLDDSEEDDDEDSGHSSRRRGSISSGVSYEEFQVLVRRVDRMEHSIGSIVSKIDAVIVKLEIMERAKLKRREVLGRLLDGVAEDERLGRDSEIHREQMERLVREELERWESDDAASQISHGLGTPVGLNGQPRPRSSRPSSSQSTEGMEGAGGNGSSNVHV

The variants in the test derive from B1. The following applies: with pkd1_human PKD1, P98161.
Sequence of pkd1_human PKD1, P98161 (P98161 whole entry, looked up): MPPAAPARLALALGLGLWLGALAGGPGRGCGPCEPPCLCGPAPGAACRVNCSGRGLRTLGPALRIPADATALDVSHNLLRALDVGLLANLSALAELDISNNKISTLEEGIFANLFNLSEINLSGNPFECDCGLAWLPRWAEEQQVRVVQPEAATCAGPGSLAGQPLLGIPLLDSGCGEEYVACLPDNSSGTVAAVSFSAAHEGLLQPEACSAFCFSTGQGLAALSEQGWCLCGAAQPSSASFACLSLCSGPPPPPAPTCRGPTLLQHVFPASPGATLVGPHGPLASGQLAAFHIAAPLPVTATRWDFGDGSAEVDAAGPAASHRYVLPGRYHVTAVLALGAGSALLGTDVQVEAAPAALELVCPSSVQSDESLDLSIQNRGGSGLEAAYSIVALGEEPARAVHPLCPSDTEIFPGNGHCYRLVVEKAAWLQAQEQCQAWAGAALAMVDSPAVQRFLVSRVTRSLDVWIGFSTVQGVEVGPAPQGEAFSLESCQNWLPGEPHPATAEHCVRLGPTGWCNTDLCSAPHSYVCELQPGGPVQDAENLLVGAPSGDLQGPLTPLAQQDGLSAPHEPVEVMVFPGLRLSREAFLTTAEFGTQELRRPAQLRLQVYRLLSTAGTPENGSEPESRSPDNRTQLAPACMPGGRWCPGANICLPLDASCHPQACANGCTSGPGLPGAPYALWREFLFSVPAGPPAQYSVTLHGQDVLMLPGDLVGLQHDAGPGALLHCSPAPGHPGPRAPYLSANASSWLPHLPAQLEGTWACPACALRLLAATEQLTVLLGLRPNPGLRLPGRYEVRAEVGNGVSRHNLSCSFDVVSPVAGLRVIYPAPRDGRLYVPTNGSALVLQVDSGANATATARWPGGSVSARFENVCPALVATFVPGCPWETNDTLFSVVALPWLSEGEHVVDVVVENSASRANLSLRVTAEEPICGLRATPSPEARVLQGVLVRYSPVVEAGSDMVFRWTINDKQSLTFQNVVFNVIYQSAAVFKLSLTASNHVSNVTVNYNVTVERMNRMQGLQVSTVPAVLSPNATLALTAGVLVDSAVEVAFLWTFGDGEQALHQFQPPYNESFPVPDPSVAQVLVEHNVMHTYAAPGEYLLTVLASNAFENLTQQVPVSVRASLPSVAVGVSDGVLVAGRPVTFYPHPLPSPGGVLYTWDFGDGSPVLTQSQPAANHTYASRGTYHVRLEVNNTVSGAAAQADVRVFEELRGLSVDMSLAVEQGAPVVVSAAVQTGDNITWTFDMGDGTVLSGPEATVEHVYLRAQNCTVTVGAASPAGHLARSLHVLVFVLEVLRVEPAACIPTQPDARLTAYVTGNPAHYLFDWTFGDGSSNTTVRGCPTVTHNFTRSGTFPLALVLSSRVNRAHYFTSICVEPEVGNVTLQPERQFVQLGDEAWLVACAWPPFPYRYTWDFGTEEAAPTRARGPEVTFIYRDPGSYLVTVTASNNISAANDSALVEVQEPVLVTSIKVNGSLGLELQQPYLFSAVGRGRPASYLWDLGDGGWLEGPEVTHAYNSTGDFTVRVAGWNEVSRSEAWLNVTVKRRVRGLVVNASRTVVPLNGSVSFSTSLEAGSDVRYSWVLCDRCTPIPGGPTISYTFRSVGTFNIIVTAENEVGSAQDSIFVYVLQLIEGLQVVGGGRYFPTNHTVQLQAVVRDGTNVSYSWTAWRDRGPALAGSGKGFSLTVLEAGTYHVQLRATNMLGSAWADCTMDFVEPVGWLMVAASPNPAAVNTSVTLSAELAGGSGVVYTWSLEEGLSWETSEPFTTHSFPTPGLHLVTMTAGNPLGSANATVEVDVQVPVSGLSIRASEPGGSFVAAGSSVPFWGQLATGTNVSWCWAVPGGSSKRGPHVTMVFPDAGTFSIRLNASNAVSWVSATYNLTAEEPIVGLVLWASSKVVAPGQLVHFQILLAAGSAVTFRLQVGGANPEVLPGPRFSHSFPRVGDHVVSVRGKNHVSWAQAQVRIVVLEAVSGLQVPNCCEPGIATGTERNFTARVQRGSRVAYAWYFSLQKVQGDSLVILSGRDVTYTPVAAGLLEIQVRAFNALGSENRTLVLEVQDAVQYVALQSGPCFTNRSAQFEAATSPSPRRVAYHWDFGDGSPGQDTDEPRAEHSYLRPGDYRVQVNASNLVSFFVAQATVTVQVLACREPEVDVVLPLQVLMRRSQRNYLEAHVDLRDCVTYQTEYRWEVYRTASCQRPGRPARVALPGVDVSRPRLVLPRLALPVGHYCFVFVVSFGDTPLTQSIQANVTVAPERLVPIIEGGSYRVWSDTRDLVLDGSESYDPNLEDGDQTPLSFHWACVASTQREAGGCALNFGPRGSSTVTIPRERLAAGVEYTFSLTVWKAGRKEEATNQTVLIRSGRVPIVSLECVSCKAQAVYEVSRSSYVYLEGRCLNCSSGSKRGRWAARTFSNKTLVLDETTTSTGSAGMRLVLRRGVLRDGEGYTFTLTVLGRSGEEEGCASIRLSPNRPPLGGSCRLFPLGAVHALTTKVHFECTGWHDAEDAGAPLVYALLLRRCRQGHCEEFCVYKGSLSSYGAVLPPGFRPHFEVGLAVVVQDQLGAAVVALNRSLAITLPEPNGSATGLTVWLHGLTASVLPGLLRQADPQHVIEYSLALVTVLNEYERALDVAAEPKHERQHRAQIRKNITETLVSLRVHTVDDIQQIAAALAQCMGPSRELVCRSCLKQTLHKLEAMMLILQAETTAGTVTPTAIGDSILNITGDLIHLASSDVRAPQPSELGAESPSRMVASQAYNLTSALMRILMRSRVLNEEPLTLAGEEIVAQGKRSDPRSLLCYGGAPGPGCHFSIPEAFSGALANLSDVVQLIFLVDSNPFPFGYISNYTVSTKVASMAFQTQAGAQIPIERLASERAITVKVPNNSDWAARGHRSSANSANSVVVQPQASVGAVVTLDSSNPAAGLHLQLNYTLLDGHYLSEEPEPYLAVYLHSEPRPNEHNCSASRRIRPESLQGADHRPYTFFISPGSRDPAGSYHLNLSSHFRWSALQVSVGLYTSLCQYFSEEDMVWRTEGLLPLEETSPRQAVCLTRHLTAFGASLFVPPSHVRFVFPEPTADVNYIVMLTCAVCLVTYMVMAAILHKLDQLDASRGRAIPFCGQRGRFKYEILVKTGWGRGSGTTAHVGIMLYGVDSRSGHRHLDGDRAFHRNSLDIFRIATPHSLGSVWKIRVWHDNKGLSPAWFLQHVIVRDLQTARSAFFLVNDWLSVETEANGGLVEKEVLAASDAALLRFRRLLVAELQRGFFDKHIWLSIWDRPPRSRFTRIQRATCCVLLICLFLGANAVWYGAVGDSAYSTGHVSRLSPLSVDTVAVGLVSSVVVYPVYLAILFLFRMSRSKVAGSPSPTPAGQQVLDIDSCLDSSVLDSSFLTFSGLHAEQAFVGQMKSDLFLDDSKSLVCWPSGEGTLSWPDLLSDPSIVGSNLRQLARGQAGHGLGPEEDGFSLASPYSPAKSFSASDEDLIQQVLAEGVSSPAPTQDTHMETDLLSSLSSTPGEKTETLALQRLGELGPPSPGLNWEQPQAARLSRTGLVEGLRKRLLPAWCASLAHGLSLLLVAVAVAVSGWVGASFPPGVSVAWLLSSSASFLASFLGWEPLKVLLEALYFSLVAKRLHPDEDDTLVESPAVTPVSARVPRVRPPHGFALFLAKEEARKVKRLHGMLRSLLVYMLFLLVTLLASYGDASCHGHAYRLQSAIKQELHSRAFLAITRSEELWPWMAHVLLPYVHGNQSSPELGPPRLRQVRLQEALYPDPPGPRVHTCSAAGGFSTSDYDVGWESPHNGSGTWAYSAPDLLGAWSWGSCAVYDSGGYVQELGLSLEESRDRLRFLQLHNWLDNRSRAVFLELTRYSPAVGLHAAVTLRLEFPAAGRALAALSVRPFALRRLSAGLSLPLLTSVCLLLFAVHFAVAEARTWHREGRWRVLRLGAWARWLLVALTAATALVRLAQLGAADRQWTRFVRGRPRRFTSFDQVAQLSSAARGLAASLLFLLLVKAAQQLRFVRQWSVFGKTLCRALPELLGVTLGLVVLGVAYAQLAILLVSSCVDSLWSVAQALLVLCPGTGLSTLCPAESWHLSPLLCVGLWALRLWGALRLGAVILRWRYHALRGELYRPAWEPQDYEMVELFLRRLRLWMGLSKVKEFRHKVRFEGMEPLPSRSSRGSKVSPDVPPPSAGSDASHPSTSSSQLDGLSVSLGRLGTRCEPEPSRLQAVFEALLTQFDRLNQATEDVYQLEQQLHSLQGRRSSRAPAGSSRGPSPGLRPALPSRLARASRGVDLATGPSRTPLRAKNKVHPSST
For L842A;V846A;M849A;I860A;V863A;L867A, the “effect of a mutation on the interaction” value is on record as “disrupting interaction strength”.

These data come from IntAct's records for PubMed 19556541.
